In patent US20140241984A1:
Residue numbers refer to the chain shown, from its start.

B1: Syn-O1 (antibody, IgG2b, V domains shown)
VH: EVQLVESGGGLVQPKGSLKLSCAASGFTFNTYAMHWVRQAPGKGLEWVARIRSKSSNYATYYADSVKDRFTISRDDSQSMLYLQMNNLKTEDTAMYYCVRPLKWYFDVWGTGTTVTVSS
VL: QIVLTQSPAILSASPGEKVTMTCSASSTVNYMHWYQQKSGTSPKIWIYDTSKLASGVPARFSGSGSWTSYSLTISSMEAEDAATYYCQQWNSNPPTFGAGTKLELK
B2: Syn-O2 (antibody, IgG1, V domains shown)
VH: B1 VH
VL: B1 VL
B3: Syn-O4 (antibody, IgG1, V domains shown)
VH: B1 VH
VL: B1 VL
B4: Syn-O3 (antibody, IgG1, V domains shown)
VH: B1 VH
VL: B1 VL
B5: Syn-F1 (antibody, V domains shown)
VH: DVQLVESGGDLVQPGGSRKLSCAASGFTFSSFGMHWVRQAPEKGLEWVAYINSGSSTIYYADTVKGRFTISRDNPKNTLFLQMTSLRSEDTAMYYCARGNNPGTGYYYSMDYWGQGTSVTVSS
VL: not shown
B6: Syn-F2 (antibody, IgG2a, V domains shown)
VH: B5 VH with D10G, N52S, S109A
VL: not shown

Assays:
[1] = molecular target: α-synuclein fibrils (human), P37840; experiment: inhibition ELISA; fibrils against monomers; details: remark: other sources report otherwise
[2] = molecular target: α-synuclein fibrils (human), P37840; experiment: SPR, BIAcore X100; fibrils immobilised on CM5, mAb injected at 0.01-10 nM; details: remark: other sources report otherwise

Binder | Fold Affinity to Fibrils [1] | Kd [2] | koff [2] | kon [2]
B1 | 12700 fold | 16 pM | 9.36e-05 s⁻¹ | 5.86e+06 M⁻¹ s⁻¹
B2 | 27300 fold | 96.9 pM | 0.00127 s⁻¹ | 1.31e+07 M⁻¹ s⁻¹
B3 | 6930 fold | 138 pM | 0.000996 s⁻¹ | 7.24e+06 M⁻¹ s⁻¹
B4 | 11100 fold | 171 pM | 0.000379 s⁻¹ | 2.22e+06 M⁻¹ s⁻¹
B5 | 16600 fold | 127 pM | 0.00156 s⁻¹ | 1.23e+07 M⁻¹ s⁻¹
B6 | 3140 fold | 2690 pM | 0.00338 s⁻¹ | 1.26e+06 M⁻¹ s⁻¹
